The labels stand for the following.
B1: Twister Ribozyme (parent)
chain: AACACUGCCAAUGCCGGUCCCAAGCCCGGAUAAAAGUGGAGGGGGCGG

Variants of B1 are the subject of this data set. Description: self-cleavage, relative activity (ratio to wild type); higher = more cleavage; co-transcriptional.
For the variant C20A G45U, the self-cleavage came to 0.17.

Regarding C20A G45A, the self-cleavage turned out to be 0.144.

In the case of C19U G29A, the self-cleavage stood at 0.806.

As for C20A G29C, the self-cleavage was determined as 0.0857.

As to C20A G29U, the self-cleavage came out at 0.103.

As for C19U G24A, the self-cleavage amounted to 0.0904.

C19U G24U: the self-cleavage worked out at 0.0889.

Turning to C19G C46A, the self-cleavage came out at 0.18.

C20U U31G: the self-cleavage was determined as 0.873.

On to C20U U31C, for which the self-cleavage amounted to 1.03.

Take C20G G28C: the self-cleavage worked out at 0.171.

In the case of C20G G28A, the self-cleavage is 0.141.

As for C21A G28U, the self-cleavage was found to be 0.129.

C21A G28C: the self-cleavage was 0.149.

Consider C20A G24U, for which the self-cleavage was found to be 0.0913.

For C20A G24A, the self-cleavage was determined as 0.114.

Take C20A G24C: the self-cleavage was determined as 0.0912.

For C21G G39C, the self-cleavage amounted to 0.128.

Consider C21G G39A, for which the self-cleavage came out at 0.0549.

On to C20U A22G, for which the self-cleavage came to 0.119.

C20U A22U: the self-cleavage amounted to 0.543.

As for C19G A23G, the self-cleavage came to 0.0717.

With C19G A23C, the self-cleavage amounted to 0.0786.

As to C21G, the self-cleavage was determined as 0.0865.

On to C21A, for which the self-cleavage was 0.13.

In the case of C21U, the self-cleavage was 0.129.

For C21G G29C, the self-cleavage came out at 0.123.

Turning to C21G G29U, the self-cleavage is 0.0841.

Regarding C20A A23C, the self-cleavage was 0.1.

Regarding C21A G39A, the self-cleavage worked out at 0.0763.

C21A G39U: the self-cleavage stood at 0.0973.

With C20U G28A, the self-cleavage is 0.809.

Turning to C20U G28C, the self-cleavage stood at 0.774.

C20U G29U: the self-cleavage worked out at 0.921.

Turning to C20U G29C, the self-cleavage was found to be 0.305.

Consider C19U C26A, for which the self-cleavage is 0.116.

Consider C20G G36A, for which the self-cleavage was determined as 0.0839.

C21G G42U: the self-cleavage turned out to be 0.111.

As for C21A C46U, the self-cleavage was 0.13.

As to C21A C46G, the self-cleavage came to 0.173.

Consider C21A C46A, for which the self-cleavage came out at 0.0995.

For C21A U37G, the self-cleavage amounted to 0.0471.

Turning to C21A U37C, the self-cleavage worked out at 0.115.

On to C20U U37A, for which the self-cleavage came out at 0.474.

In the case of C20U U37C, the self-cleavage turned out to be 0.192.

In the case of C20U G48A, the self-cleavage stood at 0.907.

C20U G48U: the self-cleavage came to 0.963.

Regarding C20A G39U, the self-cleavage turned out to be 0.0846.

For C20A G39C, the self-cleavage stood at 0.0811.

In the case of C21A A34G, the self-cleavage was found to be 0.052.

On to C21A A34C, for which the self-cleavage came out at 0.0648.

With C19G G39C, the self-cleavage stood at 0.162.

On to C19G G39U, for which the self-cleavage stood at 0.118.

C19G G39A: the self-cleavage stood at 0.104.

For the variant C21A A40C, the self-cleavage came out at 0.0907.

Consider C21A A40U, for which the self-cleavage came to 0.0782.

In the case of C19G A32G, the self-cleavage was determined as 0.267.

Take C19G C20A: the self-cleavage stood at 0.0695.

In the case of C19G C20U, the self-cleavage is 0.117.

For C19G G42A, the self-cleavage came to 0.0847.

Consider C19A G44A, for which the self-cleavage was 0.685.

Turning to C21A G44C, the self-cleavage was determined as 0.0966.

For C19G G43U, the self-cleavage is 0.685.

With C20U A33C, the self-cleavage was determined as 0.894.

For the variant C20U A33G, the self-cleavage came to 0.988.

Take C20G G45C: the self-cleavage was 0.136.

In the case of C19G A33C, the self-cleavage came out at 0.0963.

Turning to C20A C26A, the self-cleavage worked out at 0.0889.

For the variant C20A C26U, the self-cleavage is 0.0622.

C21A G38C: the self-cleavage came to 0.101.

Take C21G G28C: the self-cleavage is 0.0382.

In the case of C21G G28U, the self-cleavage came out at 0.0788.

For the variant C21G G28A, the self-cleavage was determined as 0.124.

For the variant C21G G43C, the self-cleavage was 0.0506.

C20U A30U: the self-cleavage is 1.05.

For the variant C20U A30G, the self-cleavage was 0.823.

As to C20U A30C, the self-cleavage is 0.533.

For the variant C20G C21A, the self-cleavage came to 0.0754.

Consider C20G C21G, for which the self-cleavage is 0.103.

Turning to C21A A23U, the self-cleavage is 0.091.

Consider C21A G41A, for which the self-cleavage is 0.27.

As to C20U G41A, the self-cleavage came out at 0.124.

Take C20U G41U: the self-cleavage came out at 0.141.

Regarding C21G U31A, the self-cleavage amounted to 0.0515.

Consider C21G U31C, for which the self-cleavage was found to be 0.0753.

On to C20A G36A, for which the self-cleavage was 0.0747.

As to C20G G29U, the self-cleavage was found to be 0.146.

With C20G G29A, the self-cleavage is 0.189.

Turning to C20U G39A, the self-cleavage is 0.288.

Take C21G C46U: the self-cleavage stood at 0.0875.

In the case of C20G G43A, the self-cleavage came to 0.0749.

Take C20A G42U: the self-cleavage worked out at 0.668.

For C20A G42A, the self-cleavage was 0.107.

Turning to C21U A35U, the self-cleavage amounted to 0.115.

As for C19U G43U, the self-cleavage turned out to be 1.02.

For the variant C19U G43A, the self-cleavage was found to be 1.04.

For the variant C19G C21U, the self-cleavage is 0.101.

C19G C21A: the self-cleavage came to 0.0839.

Regarding C20A U31G, the self-cleavage was determined as 0.177.

In the case of C20A U31C, the self-cleavage was 0.117.

For the variant C21A A32G, the self-cleavage stood at 0.0702.

Consider C20A G44A, for which the self-cleavage is 0.198.

Regarding C20A G44U, the self-cleavage came out at 0.107.

Consider C21G G36A, for which the self-cleavage was 0.0998.

As to C21G G36U, the self-cleavage was determined as 0.0888.

For C19G U31C, the self-cleavage stood at 0.492.

Consider C19G U31G, for which the self-cleavage was 0.467.

With C20U G44A, the self-cleavage was 1.

Consider C20U G44C, for which the self-cleavage stood at 0.816.

In the case of C20U G44U, the self-cleavage came to 0.893.

Regarding C19G C26A, the self-cleavage is 0.0816.

On to C19G C26G, for which the self-cleavage is 0.0807.

Take C21A C27G: the self-cleavage was determined as 0.0914.

Regarding C21A C27A, the self-cleavage came out at 0.0685.

In the case of C21A C27U, the self-cleavage turned out to be 0.0904.

For C20A G38C, the self-cleavage was 0.0639.

With C20A G38U, the self-cleavage was determined as 0.0791.

C21G G44A: the self-cleavage worked out at 0.0938.

For the variant C21G G44C, the self-cleavage was 0.0843.

Take C21G G44U: the self-cleavage is 0.102.

With C21U A32U, the self-cleavage was 0.127.

Take C21U A32C: the self-cleavage amounted to 0.107.

As for C20G U37G, the self-cleavage was found to be 0.0665.

Take C20G G44C: the self-cleavage turned out to be 0.0871.

For C20U C26G, the self-cleavage stood at 0.0973.

Consider C20G A34C, for which the self-cleavage was 0.0838.

For C21G A33G, the self-cleavage is 0.03.

C21G A33C: the self-cleavage was determined as 0.152.

As to C20A G28C, the self-cleavage turned out to be 0.125.

For C20A G28U, the self-cleavage was 0.0952.

With C20A G28A, the self-cleavage was 0.0974.

For C19U G36C, the self-cleavage was determined as 0.129.

With C19G G48C, the self-cleavage turned out to be 0.23.

Regarding C19G G48U, the self-cleavage was 0.218.

With C21A C26A, the self-cleavage turned out to be 0.069.

In the case of C21A C26U, the self-cleavage is 0.07.

For C20U C25U, the self-cleavage worked out at 0.545.

Regarding C20U C25G, the self-cleavage came out at 0.088.

For the variant C20G A30C, the self-cleavage was determined as 0.0614.

With C20G A30U, the self-cleavage turned out to be 0.165.

In the case of C19U A40G, the self-cleavage was determined as 0.108.

For C19G G41C, the self-cleavage is 0.136.

With C19G G41U, the self-cleavage is 0.104.

With C19G G41A, the self-cleavage is 0.113.

With C19A U37G, the self-cleavage was found to be 0.0778.

In the case of C19A U37C, the self-cleavage was determined as 0.0949.

C21G A34U: the self-cleavage turned out to be 0.0291.

With C21G A34G, the self-cleavage was 0.0977.

In the case of C19U C25G, the self-cleavage turned out to be 0.176.

For the variant C19U C25U, the self-cleavage turned out to be 0.623.

With C19G G38A, the self-cleavage came out at 0.132.

Consider C19U A35U, for which the self-cleavage came to 0.972.

As for C19U A35G, the self-cleavage came to 0.683.

As to C20A A34C, the self-cleavage was 0.102.

Regarding C19U A23C, the self-cleavage was 0.117.

As to C21U A22U, the self-cleavage amounted to 0.072.

With C20U G38A, the self-cleavage turned out to be 0.802.

On to C20U G38C, for which the self-cleavage came to 0.841.

As to C20U G36A, the self-cleavage amounted to 0.216.

For C21G A32C, the self-cleavage is 0.0636.

Take C21G A32G: the self-cleavage amounted to 0.0254.

For C21G G47A, the self-cleavage stood at 0.0718.

In the case of C21G G47U, the self-cleavage worked out at 0.142.

Take C19U G41U: the self-cleavage stood at 0.125.

On to C21G C27A, for which the self-cleavage turned out to be 0.0855.

For the variant C21A G47U, the self-cleavage worked out at 0.117.

On to C21A G47C, for which the self-cleavage is 0.0714.

Source of the values: the RNAGym collection of RNA variant scans (doi:10.7554/elife.80360).
